Reference: PMC7299284, “Studies in humanized mice and convalescent humans yield a SARS-CoV-2 antibody cocktail” (Science (New York, N.y.), 2020)

B1: REGN10987 (antibody, V domains shown)
VH: QVQLVESGGGVVQPGRSLRLSCAASGFTFSNYAMYWVRQAPGKGLEWVAVISYDGSNKYYADSVKGRFTISRDNSKNTLYLQMNSLRTEDTAVYYCASGSDYGDYLLVYWGQGTLVTVSS
VL: QSALTQPASVSGSPGQSITISCTGTSSDVGGYNYVSWYQQHPGKAPKLMIYDVSKRPSGVSNRFSGSKSGNTASLTISGLQSEDEADYYCNSLTSISTWVFGGGTKLTVL
notes: source: CHO cells, transfected, recombinant fully human antibody; copies: 2 + 2
B2: REGN10933 (antibody, V domains shown)
VH: QVQLVESGGGLVKPGGSLRLSCAASGFTFSDYYMSWIRQAPGKGLEWVSYITYSGSTIYYADSVKGRFTISRDNAKSSLYLQMNSLRAEDTAVYYCARDRGTTMVPFDYWGQGTLVTVSS
VL: DIQMTQSPSSLSASVGDRVTITCQASQDITNYLNWYQQKPGKAPKLLIYAASNLETGVPSRFSGSGSGTDFTFTISGLQPEDIATYYCQQYDNLPLTFGGGTKVEIK
notes: as for B1

Columns and labels:
[1] = molecular target: T1, RBD of SARS-CoV-2 spike (construct not told: ACE2 blocking, cross-competition and HDX-MS experiments) (SARS-CoV-2, UniProt P0DTC2); experiment: cross-competition binding assay; cross-competition of the nine most-potent neutralizing antibodies for binding to RBD (fig. S7)
T1 construct: also called spike protein RBD

[2] = molecular target: T1, RBD of SARS-CoV-2 spike (construct not …); experiment: HDX-MS; hydrogen-deuterium exchange mass spectrometry of spike protein RBD with each of nine antibodies; conditions: both partners purified

Binder	binding result [1]	binding result [2]
B1	binds	
B2		binds
